Test results as given in patent publication US20050255547A1.

Molecular target: oligomerized FasL
Experiment: cell-based or functional assay

Substance | inhibition of FasL-induced apoptosis of A20 cells (IC50)
Fas-COMP (receptor) | 0.035 µg/mL
Fas-Fc (Fc fusion) | > 1 µg/mL
FasR:mACRP30 (receptor) | 0.08 µg/mL
